# “And” between values parts separate entries of the source, which are not always exact repeats. Equal values may be shown once.
# How the values were obtained:
# [1] = target: LbCas12a-scTrex2 fusion (single-chained Trex2 homodimer at the C-terminus; construct 27433) (Simian virus 40; Lachnospiraceae bacterium ND2006; Mus musculus); test: cell-based or functional assay
# [2] = target: LbCas12a-Trex2 fusion (C-terminal Trex2; construct 25962) (Simian virus 40; Lachnospiraceae bacterium ND2006; Mus musculus); test: cell-based or functional assay
substance,measurement,setting,value
LbCas12a-scTrex2 fusion (single-chained Trex2 homodimer at the C-terminus; construct 27433) (enzyme),1 kb Inversion (targeted fragment inversion in transgenic maize plants),[1],1 plants and 2%
same,targeted inversion frequency among the 13 plants in which both targets were edited,[1],7.7%
LbCas12a-Trex2 fusion (C-terminal Trex2; construct 25962) (enzyme),1 kb Inversion (targeted fragment inversion in transgenic maize plants),[2],28 plants and 18.4%

# — US20250382598A1
